Source: patent publication US20180044422A1, “TREATING SOLID TUMOR BY TARGETING DECTIN-1 SIGNALING” (New York University, priority 2016, published 2018)

Tests used:
murine Dectin-1 = biological target: T1, murine Dectin-1 (Mus musculus, UniProt Q6QLQ4); experiment: Galectin-coated ELISA with murine Dectin-1 IgG Fc; assay type: binding; settings: galectin-coated plates; Galectin-3/-4/-9 comparison at 2.5 μg/ml Dectin-1 IgG Fc
T1 construct: purchased InvivoGen fc-mdec1a
T1 sequence (Q6QLQ4 71-244 limits assumed): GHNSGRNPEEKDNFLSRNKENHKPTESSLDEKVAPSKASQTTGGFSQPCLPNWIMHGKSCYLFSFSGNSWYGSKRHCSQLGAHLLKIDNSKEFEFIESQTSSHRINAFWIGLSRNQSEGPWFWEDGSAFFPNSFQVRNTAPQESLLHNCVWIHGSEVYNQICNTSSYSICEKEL
Method: (§1) To investigate if Galectin-9 can bind with Dectin-1, Protein G-magnet beads (2 ml; Dynabeads) were loaded with Dectin-1 IgG Fc (1 mg) or control IgG Fc before washing and blocking. Subsequently, beads were incubated with recombinant Galectin-9 ([…]; R&D Systems) for 30 min, washed, and stained with PE-conjugated anti-Galectin-9 (Biolegend, San Diego Calif.). Galectin-9 specific staining was determined by flow cytometry. To investigate the interaction between Galectin-9 and Dectin-1 by ELISA, plates (Maxisorp, Nunc, St. Louis, Mo.) were coated with recombinant mouse Galectin-9 ([…]; R&D Systems, Minneapolis, Minn.), Galectin-3, or Galectin-4 (both […]; Biolegend) for 16 hours at 4° C., blocked with 1% BSA/PBS for 1 hour, and incubated with increasing doses of Dectin-1 IgG Fc or control IgG Fc for 2 hours. The Galectin-bound Dectin-1 IgG Fc was detected with anti-IgG-HRP. For affinity precipitation experiments, protein G-beads were loaded with Dectin-1 IgG Fc and were then incubated with the extract of 6 month old KC pancreata. Bead-bound precipitates were resuspended with loading buffer, resolved by SDS-PAGE under reduced conditions for western blotting using mAbs specific for Galectin-9. To determine whether Galectin-9 induces Dectin-1 signaling, the Dectin-1 reporter HEK293 cell line^16 (Invivogen) was treated with recombinant Galectin-9 (1-10 μg/ml; R&D Systems), d-Zymosan (1-10 μg/ml), or Curdlan (10-100 μg/ml; both Invivogen). Dectin-1 signaling was measured by detection of secreted embryonic alkaline phosphatase. In other experiments, WT and Dectin-1^−/− splenic macrophages were treated in vitro with recombinant Galectin-9 (10 ug/ml). Syk phosphorylation was measured by flow cytometry at 3 hours.
(§2) Non-pathogen derived Dectin-1 ligands have not been well-characterized. […] Bead-IgG Fc complexes were incubated with recombinant Galectin-9 and then labeled with a fluorescently-conjugated αGalectin-9 mAb and tested for fluorescence by flow cytometry. […]

Dectin-1 IgG Fc = biological target: T2, Dectin-1 IgG Fc (Mus musculus, UniProt Q6QLQ4); experiment: Protein G bead / flow cytometry Galectin-9-Dectin-1 binding; settings: recombinant Galectin-9, flow cytometry
T2 construct: purchased InvivoGen fc-mdec1a
T2 sequence (Q6QLQ4 71-244 limits assumed): T1 sequence (Q6QLQ4 71-244 limits assumed)
Method: (§3) To investigate if Galectin-9 can bind with Dectin-1, Protein G-magnet beads (2 ml; Dynabeads) were loaded with Dectin-1 IgG Fc (1 mg) or control IgG Fc before washing and blocking. Subsequently, beads were incubated with recombinant Galectin-9 ([…]; R&D Systems) for 30 min, washed, and stained with PE-conjugated anti-Galectin-9 (Biolegend, San Diego Calif.). Galectin-9 specific staining was determined by flow cytometry. To investigate the interaction between Galectin-9 and Dectin-1 by ELISA, plates (Maxisorp, Nunc, St. Louis, Mo.) were coated with recombinant mouse Galectin-9 ([…]; R&D Systems, Minneapolis, Minn.), Galectin-3, or Galectin-4 (both […]; Biolegend) for 16 hours at 4° C., blocked with 1% BSA/PBS for 1 hour, and incubated with increasing doses of Dectin-1 IgG Fc or control IgG Fc for 2 hours. The Galectin-bound Dectin-1 IgG Fc was detected with anti-IgG-HRP. […] Dectin-1 signaling was measured by detection of secreted embryonic alkaline phosphatase. […] Syk phosphorylation was measured by flow cytometry at 3 hours.
as §2

human Dectin-1 = experiment: Galectin-9-coated ELISA with human Dectin-1 IgG Fc; assay type: binding; settings: Galectin-9 coated plates, increasing doses
Method: as §3, §2

Dectin-1 [1] = experiment: Syk phosphorylation in WT and Dectin-1-/- macrophages; assay type: cell-based, mouse; settings: 10 ug/ml for 3 hours, WT vs Dectin-1-/- macrophages, flow cytometry
Method: as §1, with “To determine whether Galectin-9 induces Dectin-1 signaling, the Dectin-1 reporter HEK293 cell line^16 (Invivogen) was treated with recombinant Galectin-9 (1-10 μg/ml; R&D Systems), d-Zymosan (1-10 μg/ml), or Curdlan (10-100 μg/ml; both Invivogen).” left out, “In other experiments, WT and Dectin-1^−/− splenic macrophages were treated in vitro with recombinant Galectin-9 (10 ug/ml).” left out

Dectin-1 [2] = experiment: Dectin-1 reporter HEK293 cell line (secreted embryonic alkaline phosphatase); assay type: cell-based; settings: low and high doses (1-10 μg/ml)
Method: as §1, with “To determine whether Galectin-9 induces Dectin-1 signaling, the Dectin-1 reporter HEK293 cell line^16 (Invivogen) was treated with recombinant Galectin-9 (1-10 μg/ml; R&D Systems), d-Zymosan (1-10 μg/ml), or Curdlan (10-100 μg/ml; both Invivogen).” left out, “In other experiments, WT and Dectin-1^−/− splenic macrophages were treated in vitro with recombinant Galectin-9 (10 ug/ml).” left out

[3] = tested on: bone-marrow derived macrophages (BMDM); experiment: Dectin-1 expression in bone-marrow derived macrophages; assay type: cell-based, mouse; settings: cytokine added to day 8 BMDM cultures for 24h

human Dectin-1, sequence (Q9BXN2 114-247 limits assumed): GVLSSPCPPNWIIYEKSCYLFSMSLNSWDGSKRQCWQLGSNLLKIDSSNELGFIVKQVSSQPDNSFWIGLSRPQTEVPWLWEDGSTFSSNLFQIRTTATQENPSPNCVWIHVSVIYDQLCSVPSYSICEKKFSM

B1: Galectin-3: recombinant Galectin-3 (Biolegend) coated on ELISA plates (protein, UniProt P16110 2-264, looked up)
Galectin-3: ADSFSLNDALAGSGNPNPQGYPGAWGNQPGAGGYPGAAYPGAYPGQAPPGAYPGQAPPGAYPGQAPPSAYPGPTAPGAYPGPTAPGAYPGQPAPGAFPGQPGAPGAYPQCSGGYPAAGPYGVPAGPLTVPYDLPLPGGVMPRMLITIMGTVKPNANRIVLDFRRGNDVAFHFNPRFNENNRRVIVCNTKQDNNWGKEERQSAFPFESGKPFKIQVLVEADHFKVAVNDAHLLQYNHRMKNLREISQLGISGDITLTSANHAMI
Murine Dectin-1
  binding of murine Dectin-1 IgG Fc on ELISA: did not avidly bind

B2: Galectin-4: recombinant Galectin-4 (Biolegend) coated on ELISA plates (protein, UniProt Q8K419 1-326, looked up)
Galectin-4: MAYVPAPGYQPTYNPTLPYKRPIPGGLSVGMSVYIQGMAKENMRRFHVNFAVGQDDGADVAFHFNPRFDGWDKVVFNTMQSGQWGKEEKKKSMPFQKGKHFELVFMVMPEHYKVVVNGNSFYEYGHRLPVQMVTHLQVDGDLELQSINFLGGQPAAAPYPGAMTIPAYPAGSPGYNPPQMNTLPVMTGPPVFNPRVPYVGALQGGLTVRRTIIIKGYVLPTARNFVINFKVGSSGDIALHLNPRIGDSVVRNSFMNGSWGAEERKVAYNPFGPGQFFDLSIRCGMDRFKVFANGQHLFDFSHRFQAFQMVDTLEINGDITLSYVQI
Murine Dectin-1
  binding of murine Dectin-1 IgG Fc on ELISA: did not avidly bind

B3: Galectin-9: recombinant Galectin-9 (R&D Systems), lectin identified as Dectin-1 ligand (protein)
chain: MALFSAQSPYINPIIPFTGPIQGGLQEGLQVTLQGTTKSFAQRFVVNFQNSFNGNDIAFHFNPRFEEGGYVVCNTKQNGQWGPEERKMQMPFQKGMPEFELCFLVQRSEFKVMVNKKFVQYQHRVPYHLVDTIAVSGCLKLSFITFQNSAAPVQHVFSTVQFSQPVQFPRTPKGRKQKTQNFRPAHQAPMAQTTIHMVHSTPGQMFSTPGIPPVVYPTPAYTIPFYTPIPNGLYPSKSIMISGNVLPDATRFHINLRCGGDIAFHLNPRFNENAVVRNTQINNSWGQEERSLLGRMPFSRGQSFSVWIICEGHCFKVAVNGQHMCEYYHRLKNLQDINTLEVAGDIQLTHVQT
Dectin-1 IgG Fc
  binding to bead-bound Dectin-1 IgG Fc: avidly ligated
Murine Dectin-1
  binding of murine Dectin-1 IgG Fc on ELISA: dose-dependent manner
Human Dectin-1
  binding of human Dectin-1 IgG Fc on ELISA: dose-dependent manner
Dectin-1 [1]
  Syk phosphorylation: activated Syk in a Dectin-1-dependent manner
Dectin-1 [2]
  Dectin-1 activation (NF-κB signaling) in reporter cells: induced NF-κB signaling

B4: IL-12: cytokine added to BMDM cultures (protein, UniProt P43431 23-215; P43432 23-335, looked up)
Interleukin-12 subunit alpha: RVIPVSGPARCLSQSRNLLKTTDDMVKTAREKLKHYSCTAEDIDHEDITRDQTSTLKTCLPLELHKNESCLATRETSSTTRGSCLPPQKTSLMMTLCLGSIYEDLKMYQTEFQAINAALQNHNHQQIILDKGMLVAIDELMQSLNHNGETLRQKPPVGEADPYRVKMKLCILLHAFSTRVVTINRVMGYLSSA
Interleukin-12 subunit beta: MWELEKDVYVVEVDWTPDAPGETVNLTCDTPEEDDITWTSDQRHGVIGSGKTLTITVKEFLDAGQYTCHKGGETLSHSHLLLHKKENGIWSTEILKNFKNKTFLKCEAPNYSGRFTCSWLVQRNMDLKFNIKSSSSSPDSRAVTCGMASLSAEKVTLDQRDYEKYSVSCQEDVTCPTAEETLPIELALEARQQNKYENYSTSFFIRDIIKPDPPKNLQMKPLKNSQVEVSWEYPDSWSTPHSYFSLKFFVRIQRKKEKMKETEEGCNQKGAFLVEKTSTEVQCKGGNVCVQAQDRYYNSSCSKWACVPCRVRS
[3]
  Dectin-1 expression in BMDM: did not influence Dectin-1 expression
